Measurements: publication PMC10269814, “New Perspectives on Escherichia coli Signal Peptidase I Substrate Specificity: Investigating Why the TasA Cleavage Site Is Incompatible with LepB Cleavage” (Microbiology Spectrum, 2023)
Values after ≈ are worked out from the molar mass of the structure shown. Values joined by “and” are separate entries in the source; they are usually repeats but may differ in a detail not shown here. Identical values can stand only once. Ends that are not written are not given here. Peptide text beside a SMILES is read from it.

Tests used:
[1] = target: T1, LepB Δ2-76 (Escherichia coli, UniProt P00803); experiment: biochemical
T1 construct: made in house; host or cells: E. coli BL21(DE3)
Method: The cleavage of the fluorescent peptide, Dabcyl-[…]-Edans, by LepB leads to an increase in relative fluorescence over time. If the ability of LepB to cleave this peptide is inhibited, the increase in relative fluorescence per second should decrease in a concentration-dependent manner.
A reaction in a 100-μL reaction mixture in phosphate-buffered saline (PBS) (pH 7.4) containing 0.1% Triton X-100 was initiated by adding 450 nM LepB Δ2-76 to a black, clear-bottom 96-well plate (Corning, Corning, NY, USA). In triplicate, wells contained a 2-fold serial dilution of the peptide being tested from 0.5 mg/mL and 10 μM fluorescent peptide, Dabcyl-[…]-Edans (Mimotopes, Mulgrave, VIC, Australia). While the peptide containing the two fluorophores is intact, the Edans emission is quenched by Dabcyl through FRET. However, once the peptide is cleaved by LepB, the fluorophores are no longer in close enough proximity for the transfer of energy and the fluorescence emission of Edans is recorded. The cleavage of the fluorescent peptide by LepB was recorded using an excitation wavelength of 340 nm and an emission wavelength of 490 nm recorded every 2 min for 30 min in a Tecan Infinite 200 Pro plate reader. Data were analyzed using the formula [(RFU2 − RFU1)/(time2 − time1)] = RFU/s on the linear portion of the reaction (where RFU stands for relative fluorescent units), and the absolute IC50 was determined using the simple linear regression analysis on Prism 9.

[2] = target: T2, LepB Δ2-76 His-SUMO (Escherichia coli signal peptidase I) (Escherichia coli, UniProt P00803); experiment: biochemical; format: binding
T2 construct: purchased Sapphire Bioscience
Source text: Surface plasmon resonance (SPR) analysis on a Pioneer FE system (Sartorius, Göttingen, Germany) was used to determine the on- and off-rates of custom peptides (Mimotopes, Mulgrave, VIC, Australia) with purchased LepB (Sapphire Bioscience, Redfern, NSW, Australia) ([9]). Briefly, LepB Δ2-76 His-SUMO was immobilized onto a CDH chip (Sartorius, Göttingen, Germany) onto flow cells 1 and 3 by an amine coupling reaction using 0.2 M 1-ethyl-3-[(3-dimethylamino)propyl]-carbodiimide (EDC) and 0.05 M N-hydroxysuccinimide (NHS). The EDC-NHS mix was caused to flow over at 15 μL/min for 100 s, LepB was injected at 10 μL/min for 10 min, and then ethanolamine was caused to flow over at 10 μL/min for 10 min. Flow cell 2 was used as a reference cell, and no LepB was injected over this cell. The assay was performed using a OneStep assay method with 75% of the loop. Peptides were caused to flow over the flow cells at a concentration of 50 μM at a flow rate of 50 μL/min with a dissociation period of 180 s. A regeneration cycle at a flow rate of 50 μL/min for 3 min with Tris-EDTA (TE) was completed after every cycle. Data were collected in triplicate, and analysis was completed with the Qdat analysis software (Sartorius, Göttingen, Germany; see Fig. S1 in the supplemental material).

[3] = system: E. coli MG1655 (empty pBAD) and E. coli BL21(DE3) (empty pET15b); experiment: MIC assay against E. coli; format: cell-based, Escherichia coli; settings: rich (Mueller-Hinton) and M9 minimal media, with or without subinhibitory DMSO (5%); overnight 37°C; peptides 08 and 10 from 0.5 mg/mL, 11 from 1 mg/mL
Method: (§1) The resistance to the peptides was determined using MIC methods as previously described ([31]). Briefly, 5 × 10^5 cells were added to a 96-well plate which contained a peptide 2-fold serially diluted in either M9 minimal medium containing 5% DMSO and 0.2% glucose or Mueller-Hinton medium containing 5% DMSO. Plates were incubated overnight at 37°C, and the MIC result was scored as the last set of wells that contained no growth of bacteria. Bacteria tested were E. coli MG1655 containing an empty pBAD plasmid, E. coli BL21(DE3) containing an empty pET15b plasmid, S. aureus FDA209, and S. aureus USA300. Peptides 08 and 10 were tested from 0.5 mg/mL, and peptide 11 was tested from 1 mg/mL.

[4] = system: Staphylococcus aureus FDA209; format: cell-based; settings: strain FDA209, rich medium, subinhibitory DMSO (5%), overnight 37°C
Method: as §1

[5] = system: Staphylococcus aureus USA300; format: cell-based; settings: strain USA300, rich medium, subinhibitory DMSO (5%), overnight 37°C
Method: as §1

[6] = target: LepB Δ2-76 (Escherichia coli (strain DH5α)) (UniProt P00803)
[7] = target: LepB Δ2-76 His-SUMO (Escherichia coli) (UniProt P00803); experiment: SPR; LepB Δ2-76 His-SUMO amine-coupled (EDC/NHS) to a CDH chip, Pioneer FE; OneStep method with 75% of the loop; peptides flowed at 50 μM, 50 μL/min, 180 s dissociation; regeneration with Tris-EDTA; triplicate

| Molecule | IC50 [1] [µM] | Kd [2] [µM] | IC50 of LepB cleavage of the fluorescent peptide Dabcyl-DAPPAKAA-Edans (FRET enzyme assay) [6] [µg/mL] | koff [7] [s⁻¹] | kon [7] [M⁻¹ s⁻¹] | also measured |
| --- | --- | --- | --- | --- | --- | --- |
| GGTWAAFE [Peptide 05] | 967 |  |  |  |  |  |
| GGTWAAIE [Peptide 10] |  |  |  |  |  | Kd off-rate ([2]; SPR OneStep, LepB amine-coupled to CDH chip, peptide 50 μM, dissociation 180 s, mean ± standard error, triplicate): 0.00421 s⁻¹ and 0.00421 ± 0.00049 s⁻¹; Ka on-rate ([2]; SPR OneStep, Pioneer FE, LepB amine-coupled to CDH chip, peptide 50 μM, flow 50 μL/min, mean ± standard error, triplicate): 4770 ± 590 M⁻¹ s⁻¹; MIC [3]: No MIC was observed |
| TWAAFN [Peptide 07] | 1970 | 5.38 ± 0.2 |  |  |  |  |
| TWAAIE [Peptide 08] | 647 | 0.7 ± 0.35 |  |  |  |  |
| C[C@H](N)C(=O)N[C@@H](C)C(=O)N[C@@H](Cc1ccccc1)C(=O)N[C@@H](CCC(=O)O)C(=O)O [Peptide 11] (H-AAFE-OH) | 3790 | 18.5 ± 0.62 |  |  |  | MIC [4]: 1000 µg/mL (≈ 2290 µM); MIC [5]: 1000 µg/mL (≈ 2290 µM) |
| GGTWAAFNDV [Peptide 03] | 1160 | 8.71 ± 2.14 |  |  |  |  |
| GGGTWAAIE [Peptide 06] | 4520 | 17.3 ± 0.2 |  |  |  |  |
| VGGGTWAAIEEGKL [Peptide 04] | 1680 | 8.83 ± 2.59 |  |  |  |  |
| VGGGTWAAFETL [Peptide 02] | 1010 | 12.8 ± 2.55 |  |  |  |  |
| GGGTWAAFEEGK [Peptide 01] | 1600 | 10.3 |  |  |  |  |
| GGTWAAFNDV [peptide 03] |  |  | 1210 | 0.947 | 146000 |  |
| VGGGTWAAIEEGKL [peptide 04] |  |  | 2340 | 0.17 | 26400 |  |
| GGGTWAAIE [peptide 06] |  |  | 3890 | 0.0208 | 1200 |  |
| TWAAIE [peptide 08] |  |  | 446 | 0.00239 | 2500 |  |
| VGGGTWAAFETL [peptide 02] |  |  | 1220 | 0.0147 | 1140 |  |
| AAFE [peptide 11] |  |  | 1660 | 0.442 | 15900 |  |
| GGTWAAFE [peptide 05] |  |  | 810 |  |  |  |
| GGGTWAAFEEGK [peptide 01] |  |  | 1930 | 0.0434 | 4440 |  |
| TWAAFN [peptide 07] |  |  | 1390 | 0.321 | 60400 |  |
